Measurements from patent publication US20210128683A1 (RISE BIOPHARMACEUTICALS, published 2021).

Experiments:
CXCR1 = target: T1, CXCR1 (UniProt P25024 1-350, limits assumed); experiment: indirect ELISA, ONCO P8-CXCR1 complex formation
T1 construct: also called IL-8R
T1 sequence (looked up): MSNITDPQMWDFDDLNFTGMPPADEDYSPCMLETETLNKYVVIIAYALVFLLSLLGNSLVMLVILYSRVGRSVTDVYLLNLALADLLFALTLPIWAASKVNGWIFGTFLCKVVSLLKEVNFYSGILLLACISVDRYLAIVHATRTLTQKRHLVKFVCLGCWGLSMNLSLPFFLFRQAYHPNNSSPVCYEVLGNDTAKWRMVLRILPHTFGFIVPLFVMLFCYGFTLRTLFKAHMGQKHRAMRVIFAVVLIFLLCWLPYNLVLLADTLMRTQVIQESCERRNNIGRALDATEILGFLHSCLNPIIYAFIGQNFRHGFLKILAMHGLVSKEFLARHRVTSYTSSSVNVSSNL
Text: The Kd Equation include: (1) i=A_{450 nm}/A^max_{450 nm}, then i=Ligand/Ligand^max; (2) 1/(1−i)=(Ligₜₒₜ/i)/Kd−b, b=fqSrec/Kd.

CXCR2 = target: T2, CXCR2 (UniProt P25025 1-360, limits assumed); experiment: indirect ELISA, ONCO P8-CXCR2 complex formation
T2 construct: also called IL-8R
T2 sequence (looked up): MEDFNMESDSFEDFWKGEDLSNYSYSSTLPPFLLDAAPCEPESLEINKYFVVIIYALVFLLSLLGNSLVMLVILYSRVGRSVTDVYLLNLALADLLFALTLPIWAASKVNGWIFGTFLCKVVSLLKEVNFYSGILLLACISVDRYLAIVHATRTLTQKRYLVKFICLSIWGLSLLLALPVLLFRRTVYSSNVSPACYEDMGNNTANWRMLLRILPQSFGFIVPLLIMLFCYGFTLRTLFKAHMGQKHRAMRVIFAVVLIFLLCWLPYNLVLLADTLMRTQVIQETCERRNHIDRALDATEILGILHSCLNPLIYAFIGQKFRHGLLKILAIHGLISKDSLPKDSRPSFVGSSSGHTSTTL

B1: ONCO P-8 (peptide)
chain: GSKELRCQCIRSYSKPFHPKFIKELRVIPASQFCANTEIIVKLSDGRELCLDPKENWVQRVVEKFLKRAENS
notes: Designed analogue of CXCL8 (IL-8), described as an antagonist of CXCR1 and CXCR2; also called chemokine receptor antagonistic modified peptide
- Kd (CXCR1): 286 nM
- Kd (CXCR2): 139 nM
